Assay results as given in patent publication US20110118131A1 (published 2011).
Numbering of substitutions follows the chain as printed. Names and notes keep the numbering of the source.

T1: Ep-CAM (UniProt P16422 24-265, limits assumed)
T1 sequence (looked up): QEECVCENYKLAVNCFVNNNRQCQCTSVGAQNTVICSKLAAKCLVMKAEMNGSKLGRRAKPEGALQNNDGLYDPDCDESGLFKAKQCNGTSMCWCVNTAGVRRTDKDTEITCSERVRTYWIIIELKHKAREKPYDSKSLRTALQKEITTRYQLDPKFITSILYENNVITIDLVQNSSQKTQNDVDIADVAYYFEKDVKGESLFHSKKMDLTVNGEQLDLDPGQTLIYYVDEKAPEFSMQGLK

T2: Ep-CAM (UniProt P16422 24-265, limits assumed)
T2 construct: Immobilised on the Biacore chip; construct not described
T2 sequence (looked up): T1 sequence (looked up)

B1: ING-1 Fab, heavy chain Y32P (Fab, V domains shown)
VH: QIQLVQSGPELKKPGETVKISCKASGYTFTKPGMNWVKQAPGKGLKWMGWINTYTEEPTYGDDFKGRFAFSLETSASTANLQINNLKSEDTATYFCARFGSAVDYWGQGTSVTVSS
VL: DIVMTQAAFSNPVTLGTSGSISCRSSKSLLHSNGITYLYWYLQKPGQSPQLLIYQMSNLASGVPDRFSSSGSGTDFTLRISRVEAEDVGVYYCAQNLELPRTFGGGTKLEMKR
notes: Fab in periplasmic extract
B2: ING-1 Fab, heavy chain Y105G (Fab, V domains shown)
VH: B1 VH with P32Y, Y105G
VL: B1 VL
notes: Fab in periplasmic extract
B3: ING-1 Fab, heavy chain Y32L (Fab, V domains shown)
VH: B1 VH with P32L
VL: B1 VL
notes: Fab in periplasmic extract
B4: ING-1 Fab, heavy chain Y32I (Fab, V domains shown)
VH: B1 VH with P32I
VL: B1 VL
notes: Fab in periplasmic extract
B5: ING-1 Fab, heavy chain Y105P (Fab, V domains shown)
VH: B1 VH with P32Y, Y105P
VL: B1 VL
notes: Fab in periplasmic extract
B6: ING-1 Fab, heavy chain Y105A (Fab, V domains shown)
VH: B1 VH with P32Y, Y105A
VL: B1 VL
notes: Fab in periplasmic extract
B7: XPA23 heavy chain D106A (Fab, V domains shown)
VH: EVQLLESGGGLVQPGGSLRLSCAASGFTFSKYFMFWVRQAPGKGLEWVSVISPSGGMTRYADSVKGRFTISRDNSKNTLYLQMNSLRAEDTAVYYCARVGYGGNSAYWGQGTLVTVSS
VL: DIQMTQSPSSVSASVGDRLTIICRASQDINRWLAWYQQTPGNAPKLLIHSATSLQSGVPSRFSGSGSGTDFTLTINSLQPEDFATYYCQQADSFPLTFGGGTKVEIK
notes: Fab, periplasmic extract; also called C5A D106A
B8: XPA23 heavy chain D106I (Fab, V domains shown)
VH: B7 VH with A106I
VL: B7 VL
notes: Fab, periplasmic extract; also called C5A D106I
B9: ING-1 Fab, light chain E98P (Fab, V domains shown)
VH: B1 VH with P32Y
VL: B1 VL with E98P
notes: Fab in periplasmic extract
B10: ING-1 Fab, light chain N33T (Fab, V domains shown)
VH: B1 VH with P32Y
VL: B1 VL with N33T
notes: Fab in periplasmic extract
B11: ING-1 Fab, light chain L97G (Fab, V domains shown)
VH: B1 VH with P32Y
VL: B1 VL with L97G
notes: Fab in periplasmic extract
B12: ING-1 Fab, light chain Y54A (Fab, V domains shown)
VH: B1 VH with P32Y
VL: B1 VL with Y54A
notes: Fab in periplasmic extract
B13: ING-1 Fab, light chain R101T (Fab, V domains shown)
VH: B1 VH with P32Y
VL: B1 VL with R101T
notes: Fab in periplasmic extract
B14: ING-1 Fab, light chain R101G (Fab, V domains shown)
VH: B1 VH with P32Y
VL: B1 VL with R101G
notes: Fab in periplasmic extract
B15: ING-1 Fab, light chain M56V (Fab, V domains shown)
VH: B1 VH with P32Y
VL: B1 VL with M56V
notes: Fab in periplasmic extract
B16: ING-1 Fab, light chain Y37A (Fab, V domains shown)
VH: B1 VH with P32Y
VL: B1 VL with Y37A
notes: Fab in periplasmic extract
B17: ING-1 Fab, light chain Y37I (Fab, V domains shown)
VH: B1 VH with P32Y
VL: B1 VL with Y37I
notes: Fab in periplasmic extract
B18: ING-1 Fab, light chain L99P (Fab, V domains shown)
VH: B1 VH with P32Y
VL: B1 VL with L99P
notes: Fab in periplasmic extract
B19: ING-1 Fab, light chain K27T (Fab, V domains shown)
VH: B1 VH with P32Y
VL: B1 VL with K27T
notes: Fab in periplasmic extract
B20: ING-1 Fab, light chain I35L (Fab, V domains shown)
VH: B1 VH with P32Y
VL: B1 VL with I35L
notes: Fab in periplasmic extract
B21: ING-1 Fab, light chain Y54I (Fab, V domains shown)
VH: B1 VH with P32Y
VL: B1 VL with Y54I
notes: Fab in periplasmic extract
B22: ING-1 Fab, light chain M56T (Fab, V domains shown)
VH: B1 VH with P32Y
VL: B1 VL with M56T
notes: Fab in periplasmic extract
B23: ING-1 Fab, light chain R101I (Fab, V domains shown)
VH: B1 VH with P32Y
VL: B1 VL with R101I
notes: Fab in periplasmic extract
B24: ING-1 Fab, light chain R101V (Fab, V domains shown)
VH: B1 VH with P32Y
VL: B1 VL with R101V
notes: Fab in periplasmic extract
B25: ING-1 Fab, light chain I35P (Fab, V domains shown)
VH: B1 VH with P32Y
VL: B1 VL with I35P
notes: Fab in periplasmic extract
B26: ING-1 Fab, light chain Y37V (Fab, V domains shown)
VH: B1 VH with P32Y
VL: B1 VL with Y37V
notes: Fab in periplasmic extract
B27: ING-1 Fab, light chain L29P (Fab, V domains shown)
VH: B1 VH with P32Y
VL: B1 VL with L29P
notes: Fab in periplasmic extract
B28: ING-1 Fab, light chain L99G (Fab, V domains shown)
VH: B1 VH with P32Y
VL: B1 VL with L99G
notes: Fab in periplasmic extract
B29: ING-1 Fab, light chain L97A (Fab, V domains shown)
VH: B1 VH with P32Y
VL: B1 VL with L97A
notes: Fab in periplasmic extract
B30: ING-1 Fab, light chain R101P (Fab, V domains shown)
VH: B1 VH with P32Y
VL: B1 VL with R101P
notes: Fab in periplasmic extract
B31: ING-1 Fab, light chain P100L (Fab, V domains shown)
VH: B1 VH with P32Y
VL: B1 VL with P100L
notes: Fab in periplasmic extract
B32: ING-1 Fab, light chain S57G (Fab, V domains shown)
VH: B1 VH with P32Y
VL: B1 VL with S57G
notes: Fab in periplasmic extract
B33: ING-1 Fab, light chain M56G (Fab, V domains shown)
VH: B1 VH with P32Y
VL: B1 VL with M56G
notes: Fab in periplasmic extract
B34: ING-1 Fab, light chain N33V (Fab, V domains shown)
VH: B1 VH with P32Y
VL: B1 VL with N33V
notes: Fab in periplasmic extract
B35: ING-1 Fab, light chain P100A (Fab, V domains shown)
VH: B1 VH with P32Y
VL: B1 VL with P100A
notes: Fab in periplasmic extract
B36: ING-1 Fab, light chain L99T (Fab, V domains shown)
VH: B1 VH with P32Y
VL: B1 VL with L99T
notes: Fab in periplasmic extract
B37: ING-1 Fab, light chain R101A (Fab, V domains shown)
VH: B1 VH with P32Y
VL: B1 VL with R101A
notes: Fab in periplasmic extract
B38: ING-1 Fab, light chain Q55G (Fab, V domains shown)
VH: B1 VH with P32Y
VL: B1 VL with Q55G
notes: Fab in periplasmic extract
B39: ING-1 Fab, light chain Y37T (Fab, V domains shown)
VH: B1 VH with P32Y
VL: B1 VL with Y37T
notes: Fab in periplasmic extract
B40: ING-1 Fab, light chain P100T (Fab, V domains shown)
VH: B1 VH with P32Y
VL: B1 VL with P100T
notes: Fab in periplasmic extract
B41: ING-1 Fab, light chain L29I (Fab, V domains shown)
VH: B1 VH with P32Y
VL: B1 VL with L29I
notes: Fab in periplasmic extract

Target: T1, Ep-CAM
Assay: Biacore, Fab periplasmic extract on immobilised Epcam

fold difference in affinity vs original | binding result | Binder
0.01 fold | – | B1
– | no binding | B2
0.05 fold | – | B3
0.03 fold | – | B4
– | no binding | B5
0.08 fold | – | B6

Target: T3, IL-1β (UniProt P01584 117-269)
T3 construct: Antigen of XPA23
Assay: Biacore, Fab periplasmic extract; -1 = no binding by the table's footnote

binding result | Binder
no binding | B7
no binding | B8

Target: T2, Ep-CAM
Assay: Biacore, Fab periplasmic extract

binding result | fold difference in affinity vs original ING-1 | Binder
no binding | – | B9
– | 0.6 fold | B10
no binding | – | B11
– | 0.08 fold | B12
no binding | – | B13
no binding | – | B14
no binding | – | B15
– | 0.04 fold | B16
– | 0.9 fold | B17
– | 0.01 fold | B18
no binding | – | B19
– | 0.6 fold | B20
no binding | – | B21
– | 0.8 fold | B22
no binding | – | B23
no binding | – | B24
– | 0.7 fold | B25

binding result | fold difference in affinity vs original ING-1 | Binder
no binding | – | B26
no binding | – | B27
– | 0.02 fold | B28
– | 0.5 fold | B29
no binding | – | B30
– | 0.03 fold | B31
no binding | – | B32
– | 0.8 fold | B33
no binding | – | B34
– | 0.05 fold | B35
– | 0.09 fold | B36
no binding | – | B37
– | 0.7 fold | B38
no binding | – | B39
– | 0.08 fold | B40
no binding | – | B41
